Test results reported in patent publication US20070105759.

Target: human MC4 receptor (human), P32245
Experiment: competition
Details: modification not given

human MC4 receptor (human), P32245, sequence (P32245 whole entry): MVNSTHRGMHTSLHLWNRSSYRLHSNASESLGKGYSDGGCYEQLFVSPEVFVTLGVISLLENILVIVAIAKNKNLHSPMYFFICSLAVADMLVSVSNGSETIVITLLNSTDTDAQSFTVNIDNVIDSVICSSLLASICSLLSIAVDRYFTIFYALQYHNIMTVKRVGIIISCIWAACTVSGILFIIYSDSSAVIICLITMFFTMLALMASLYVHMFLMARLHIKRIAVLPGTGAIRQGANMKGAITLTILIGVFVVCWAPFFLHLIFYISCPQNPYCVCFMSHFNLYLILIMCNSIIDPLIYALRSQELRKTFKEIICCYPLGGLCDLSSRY

YRCEHFRWC [Compound 77]
Ki: 0.41 nM
